These results are taken from patent US10052415B2, “Tropoelastin for promoting endothelial cell adhesion or migration” (University of Utah Research Foundation, priority 2005, dated 2018).

For test [1], the system named is endothelial progenitor cells. Description: Adhesion assay on coated stainless steel disks, endothelial progenitor cells. The test is classed as cell-based, human. How it is done: We conducted experiments to assess whether tropoelastin promoted the adhesion of endothelial progenitor cells. Tropoelastin was covalently conjugated to a stainless steel disk approximately 6 mm in diameter. As a control, anti-CD34 antibody (known to promote endothelial cell adhesion) was covalently conjugated to similar stainless steel disks. Endothelial progenitor cells were cultured with these coated disks, and adhesion of the cells to the coated disks was assayed.
(§1) Adhesion assays on 6 mm stainless steel disks (Orbus Medical Technologies, Ft Lauderdale, Fla.) pre-coated with anti-CD34 antibody, tropoelastin, coating vehicle, or uncoated metal were performed in a similar fashion as described above, with the following modifications: 48-well plates were used to hold the disks during the assay period to facilitate manipulation of the disks and twice the volume of cell suspension was applied (200 μl/well). Exemplary amounts of total protein covalently attached to each disk were approximately 100 micrograms. Post-adhesion, the wells were washed twice in dPBS, using a swirling motion to dislodge non-specifically adhered cells. […]

In test [2] the test system is A2058 human melanoma cells. Description: Cell adhesion assay, A2058 cells. The format is cell-based. How it is done: A2058 cells were assayed for adherence to substrates coated with BSA (control), fibronectin, tropoelastin, or a bioactive fragment of tropoelastin corresponding to a single repeat of the hexameric sequence VGVAPG (SEQ ID No. 5). In comparison to adherence to BSA, A2058 cells adhered to substrates coated with fibronectin tropoelastin, or a bioactive fragment of tropoelastin.
(§2) Cells were harvested with 0.25% trypsin/1 mM EDTA, washed three times in adhesion buffer (0.5% BSA in basal medium), suspended at a working density of 5×10^5/ml in adhesion buffer, and then allowed to recover for 1 h at 37° C. (5% CO2). For integrin-blocking assays, 25 μg/ml anti-integrin antibodies (Chemicon, Temecula, Calif.) or control IgG (Jackson ImmunoResearch Laboratories, Inc, West Grove, Pa.) were added to the cell suspension during the recovery period. During the cell recovery, the coated 96-well plates were washed twice in dPBS and blocked for 1 h at 25° C. in 5.0% BSA (dPBS). The blocking solution was removed, and the wells were washed twice in dPBS. Recovered cells were added to the coated wells in a volume of 100 μl per well and placed at 37° C. for 30 minutes (5% CO2). Following this incubation, the assay plate was inverted and assay wells were washed twice with 100 μl dPBS to remove non-specifically adhered cells. The wells were then fixed in Zamboni fixative, stained with Gill 1 hematoxylin, and overlayed with 80% glycerol. The assay was imaged at 100× magnification, capturing 3 random fields/well on a Zeiss Axiovert 200 inverted microscope equipped with a Zeiss Axiocam digital camera. Readings represent the number of adherent cells/well (average six high powered 100× fields, three taken from each of two separate wells).

In test [3] the test system is endothelial progenitor cells. The test is described as follows: Cell spreading on coated stainless steel disks (phalloidin/DAPI staining). The test is classed as cell-based, human. As to conditions: Triton X-100 permeabilized, phalloidin and DAPI staining.
Text: We also examined the appearance of the adherent endothelial cells.
Cell spreading was examined by permeabilizing the endothelial cells that had adhered to the coated metal surfaces with Triton X-100 and staining with phalloidin to highlight the actin cytoskeleton and DAPI to mark cell nuclei. […] Thus, stainless steel surfaces coated with either tropoelastin or anti-CD34 antibody would likely endothelialize more rapidly than would similar bare metal surfaces when intravascularly placed.
as §1

The test system of a further test is CHO cells. The test is described as follows: Cell adhesion assay on coated culture plates, CHO cells. To be noted: culture plates coated with 10 ug/ml protein; 0.1% BSA control. The test is classed as cell-based. As for the experimental part: Cells were plated on culture plates coated with either 0.1% BSA (as a control), 10 ug/ml fibronectin (FN), or 10 ug/ml recombinant tropoelastin, and assayed for adherence to the coated substrate.
as §2, with “96-well plates were coated in duplicate overnight at 4° C. with 10 μg/ml collagen, fibronectin, tropoelastin, or 0.1% bovine serum albumin (BSA). Cells” for “Cells”, “Following this incubation, the assay plate was inverted and assay wells were washed twice with 100 μl dPBS to remove non-specifically adhered cells. The wells were then fixed in Zamboni fixative, stained with Gill 1 hematoxylin, and overlayed with 80% glycerol. The assay was imaged at 100× magnification, capturing 3 random fields/well on a Zeiss Axiovert 200 inverted microscope equipped with a Zeiss Axiocam digital camera.” left out

Entries after “also recorded” stand apart in the source; their conditions may differ.

B1: tropoelastin: recombinant human tropoelastin lacking native signal sequence, 10× His tag and Factor Xa site on N-terminus, 706 amino acid residues (SEQ ID NO: 4) (protein, listed as Homo sapiens)
chain: MGHHHHHHHHHHSSGGIEGRGGVPGAIPGGVPGGVFYPGAGLGALGGGALGPGGKPLKPVPGGLAGAGLGAGLGAFPAVTFPGALVPGGVADAAAAYKAAKAGAGLGGVPGVGGLGVSAGAVVPQPGAGVKPGKVPGVGLPGVYPGGVLPGARFPGVGVLPGVPTGAGVKPKAPGVGGAFAGIPGVGPFGGPQPGVPLGYPIKAPKLPGGYGLPYTTGKLPYGYGPGGVAGAAGKAGYPTGTGVGPQAAAAAAAKAAAKFGAGAAGVLPGVGGAGVPGVPGAIPGIGGIAGVGTPAAAAAAAAAAKAAKYGAAAGLVPGGPGFGPGVVGVPGAGVPGVGVPGAGIPVVPGAGIPGAAVPGVVSPEAAAKAAAKAAKYGARPGVGVGGIPTYGVGAGGFPGFGVGVGGIPGVAGVPGVGGVPGVGGVPGVGISPEAQAAAAAKAAKYGVGTPAAAAAKAAAKAAQFALLNLAGLVPGVGVAPGVGVAPGVGVAPGVGLAPGVGVAPGVGVAPGVGVAPGIGPGGVAAAAKSAAKVAAKAQLRAAAGLGAGIPGLGVGVGVPGLGVGAGVPGLGVGAGVPGFGAVPGALAAAKAAKYGAAVPGVLGGLGALGGVGIPGGVVGAGPAAAAAAAKAAAKAAQFGLVGAAGLGGLGVGGLGVPGVGGLGGIPPAAAAKAAKYGVAARPGFGLSPIFPGGACLGKACGRKRK
B1: in test [1] (FIG. 7, protein covalently conjugated to 6 mm disk), the “adhesion of endothelial progenitor cells to coated stainless steel disks” value was “promoted adhesion of human endothelial cells to the metal device”. Also, the “cell adhesion compared to polysaccharide-coated control disks or to bare metal disks” value in test [1] (coated metal disks) was “significant increase in cell adhesion”. In addition, the “level of A2058 adhesion relative to fibronectin” value in test [2] (50 μg/ml of tropoelastin) is recorded as “similarly to 10 ug/ml of fibronectin”. The “dose dependence of A2058 adhesion” value in test [2] (FIG. 4) is listed as “dose dependent”. Also, the “adhesion of A2058 cells in comparison to BSA” value in test [2] (FIG. 4, coated substrates, peptide 10 μM) is “adhered”. Further, the “spreading of adherent cells across the surface of the coated disk” value in test [3] is “promoted spreading of the adherent cells across the surface of the device; also recorded: well spread cytoplasm and an organized actin cytoskeleton”. Also, in the test with CHO cells, the “adhesion of CHO cells to the coated substrate” value is “do not adhere to tropoelastin”.
